Results from paper PMC2150699 (The Journal of Cell Biology, 2000).

Key:
[1] = molecular target: HT-WG (hexahistidine-tagged WG fragment of N-WASP, amino acids 1-277) (bovine, UniProt Q95107 1-277); test: pull-down
[2] = molecular target: HT-WGP (hexahistidine-tagged WGP fragment of N-WASP, amino acids 1-396) (bovine, UniProt Q95107 1-396); test: pull-down
Sequence of HT-WGP (hexahistidine-tagged WGP fragment of N-WASP, amino acids 1-396) (Q95107 1-396): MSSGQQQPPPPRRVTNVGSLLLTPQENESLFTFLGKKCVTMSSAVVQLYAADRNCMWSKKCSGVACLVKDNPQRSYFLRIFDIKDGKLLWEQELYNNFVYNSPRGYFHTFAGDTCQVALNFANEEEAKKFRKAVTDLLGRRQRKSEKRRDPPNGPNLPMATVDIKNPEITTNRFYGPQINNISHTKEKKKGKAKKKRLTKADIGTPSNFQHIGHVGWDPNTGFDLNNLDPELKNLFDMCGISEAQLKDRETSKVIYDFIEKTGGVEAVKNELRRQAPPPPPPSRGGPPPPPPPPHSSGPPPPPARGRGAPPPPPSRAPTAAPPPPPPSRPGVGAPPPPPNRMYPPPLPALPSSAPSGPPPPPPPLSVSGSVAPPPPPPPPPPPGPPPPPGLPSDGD

Sequence of HT-WG (hexahistidine-tagged WG fragment of N-WASP, amino acids 1-277) (Q95107 1-277): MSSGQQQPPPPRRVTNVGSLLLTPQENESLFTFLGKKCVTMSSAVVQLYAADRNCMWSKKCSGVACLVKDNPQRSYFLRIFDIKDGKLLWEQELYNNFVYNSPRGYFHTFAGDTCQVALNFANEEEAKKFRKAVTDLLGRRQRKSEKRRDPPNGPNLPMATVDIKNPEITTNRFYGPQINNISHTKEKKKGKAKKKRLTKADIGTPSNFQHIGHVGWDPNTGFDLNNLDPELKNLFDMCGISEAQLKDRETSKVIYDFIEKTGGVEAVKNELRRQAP

B1: GST-VCA (GST fusion of the COOH-terminal VCA segment of bovine N-WASP, amino acids 392-505) (domain or fragment, UniProt Q95107 392-505, looked up)
chain: PSDGDHQVPTPAGSKAALLDQIREGAQLKKVEQNSRPVSCSGRDALLDQIRQGIQLKSVTDAPESTPPAPAPTSGIVGALMEVMQKRSKAIHSSDEDEDEDDDEDFEDDDEWED
[1]
  binding result: binds
[2]
  binding result: binds
